Measured values from patent US20240191188A1.

Target: CD28 on the surface of T cells and PBMCs (human) (UniProt P10747)
Test: flow cytometry of live CD3+ cells of the CD28 positive fraction after D-biotin and washing; remaining anti-CD28 Fab monomers were detected with an antibody against the Ig kappa light chain. The same antibody on cells before selection (negative control, no Fab) gives 2.73

% of cells within gate: 5.91%
Substance: αCD28 Fab fragment derived from the monoclonal anti-human CD28 antibody CD28.3, heavy chain carboxy-terminally fused to the Twin-Strep-tag (monomeric)
